Consider two molecules from US20110008356A1.

For orientation: Kd means a measure of binding affinity in units of concentration.

The target of experiment [1] is Human IL-17RA:Fc (human), Q96F46. Briefly: SPR (BIAcore 3000), receptor:Fc captured by anti-human Fc, cytokine as analyte, koff/kon, 1:1 Langmuir fit. The settings on record: remark: other sources report otherwise. For orientation: In SPR one partner is held on a chip, and binding of the other changes the refractive index at the surface.
The target in another experiment is Human IL-17RC:Fc (human) (UniProt Q8NAC3). The experiment is described as above.

B1: Human IL-17F, Q96PD4 31-163 (ligand, UniProt Q96PD4 31-163, looked up)
chain: RKIPKVGHTFFQKPESCPPVPGGSMKLDIGIINENQRVSMSRNIESRSTSPWNYTVTWDPNRYPSEVVQAQCRNLGCINAQGKEDISMNSVPIQQETLVVRRKHQGCSVSFQLEKVLVTVGCTCVTPVIHHVQ
In experiment [1], B1 returned a Kd of 100 nM.

B2: Human IL-17F (ligand, UniProt Q96PD4 31-163, looked up)
chain: B1 chain
In the experiment with Human IL-17RC:Fc (human), B2 came in with a Kd of 0.1 nM.
